The target in experiment [1] is Human Serum Albumin (human) (UniProt P02768). The experiment is described as follows: calculated from KD at 588 µM HSA (equation 2).
The target is the same in experiment [2]. In words: Transil XL HSA binding kit (immobilized HSA), unbound compound by RP-HPLC.
For experiment [3] the target is unchanged. The experiment is described as follows: calculated from KD(HSA) at 150 µM HSA (equation 2).

Data on one substance can be found in US20160303245A1, “FATTY ACID DERIVATIVES OF DIMERIC INHIBITORS OF PSD-95” (UNIVERSITY OF COPENHAGEN, priority 2013, published 2016).

For UCCB01-144 (peptide), the fb (%), fraction bound to HSA in experiment [1] is 65.3%. In experiment [2], this substance gave a Kd of 318 µM. In addition, the fu (%), fraction unbound in experiment [3] was 67.9%.
